B1: chordin vWFC2-3 (domain or fragment, UniProt Q9H2X0 703-850, looked up)
chain: NTCFFEGQQRPHGARWAPNYDPLCSLCTCQRRTVICDPVVCPPPSCPHPVQAPDQCCPVCPEKQDVRDLPGLPRSRDPGEGCYFDGDRSWRAAGTRWHPVVPPFGLIKCAVCTCKGGTGEVHCEKVQCPRLACAQPVRVNPTDCCKQC
notes: chordin, domains vWFC2-3
B2: full-length BMP-binding endothelial cell precursor-derived regulator (FL-BMPER) (natural protein)
chain: not shown
modifications: N-glycosylated (five predicted N-glycosylation sites)
notes: BMPER, human, full length, based on NCBI NM_133468.4; five vWFC domains, one vWFD domain, one TIL domain; His tag is thrombin cleavable; The protein is internally cleaved at the G368DPH371 site; the two fragments stay joined by the disulphide C364-C497; also called full length BMPER; Crossveinless-2 (CV2) in other species
B3: twisted gastrulation (Tsg) (natural protein, human, UniProt Q9GZX9 26-223, looked up)
chain: CNKALCASDVSKCLIQELCQCRPGEGNCSCCKECMLCLGALWDECCDCVGMCNPRNYSDTPPTSKSTVEELHEPIPSLFRALTEGDTQLNWNIVSFPVAEELSHHENLVSFLETVNQPHHQNVSVPSNNVHAPYSSDKEHMCTVVYFDDCMSIHQCKISCESMGASKYRWFHNACCECIGPECIDYGSKTVKCMNCMF
notes: twisted gastrulation (Tsg)

What was measured:
[1] = molecular target: T1, N-BMPER (N-terminal five vWFC domains of human BMPER) (human, UniProt Q8N8U9 40-358, N-glycosylated (four predicted sites in the vWFC domains)); experiment: SPR; chordin vWFC2-3 immobilised, N-BMPER in solution phase; Langmuir 1:1 model; settings: both partners purified
T1 construct: BMPER, human, the N-terminal five vWFC domains (vWFC1-5), based on NCBI NM_133468.4; His tag is thrombin cleavable; also called C-terminally truncated N-BMPER
T1 sequence (Q8N8U9 40-358): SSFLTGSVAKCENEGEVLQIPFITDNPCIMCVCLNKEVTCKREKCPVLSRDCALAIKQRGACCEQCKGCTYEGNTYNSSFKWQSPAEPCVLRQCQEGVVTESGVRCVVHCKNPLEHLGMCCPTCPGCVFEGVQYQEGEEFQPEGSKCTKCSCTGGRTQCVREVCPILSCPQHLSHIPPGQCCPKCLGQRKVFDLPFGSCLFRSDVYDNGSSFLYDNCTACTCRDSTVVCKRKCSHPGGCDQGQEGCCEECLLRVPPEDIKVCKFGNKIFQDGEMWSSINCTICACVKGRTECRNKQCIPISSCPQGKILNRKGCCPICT

[2] = molecular target: the molecule itself; experiment: AUC; sedimentation velocity, 230 nm, 45000 rpm, 20 °C
[3] = molecular target: B2; experiment: SPR; ProteOn XPR36; Tsg immobilised on a GLC chip by amine coupling; FL-BMPER (0-150 nM) or N-BMPER (0-50 nM) as analytes; 10 mM phosphate pH 7.4, 137 mM NaCl, 2.7 mM KCl, 0.005% Tween-20, 25 °C; KD of FL-BMPER by equilibrium analysis, of N-BMPER by Langmuir 1:1 model; settings: both partners purified
[4] = molecular target: T1, N-BMPER (N-terminal five vWFC domains …); experiment: as above; settings: both partners purified

## B1
[1]
  Kd: 200 pM
  koff: 8.22e-05 s⁻¹
  kon: 404000 M⁻¹ s⁻¹

## B2
[2]
  binding result: binds

## B3
[3]
  Kd: 68400 pM
  koff: 0.000203 s⁻¹
  kon: 2970 M⁻¹ s⁻¹
[4]
  Kd: 550 pM
  koff: 0.000228 s⁻¹
  kon: 415000 M⁻¹ s⁻¹

— paper PMC6456722, “Internal cleavage and synergy with twisted gastrulation enhance BMP inhibition by BMPER” (Matrix Biology, 2019)
